Consider 16 substances from patent US20170327577A1, “METHODS OF CONSTRUCTING AMINO TERMINAL IMMUNOGLOBULIN FUSION PROTEINS AND COMPOSITIONS THEREOF” (The California Institute for Biomedical Research, priority 2014, published 2017).

One assay addresses leptin receptor (UniProt P48357). Description: cell-based or functional assay.
The target in a further assay is T1, relaxin receptor (LGR7) (UniProt Q9HBX9).
T1 sequence (looked up): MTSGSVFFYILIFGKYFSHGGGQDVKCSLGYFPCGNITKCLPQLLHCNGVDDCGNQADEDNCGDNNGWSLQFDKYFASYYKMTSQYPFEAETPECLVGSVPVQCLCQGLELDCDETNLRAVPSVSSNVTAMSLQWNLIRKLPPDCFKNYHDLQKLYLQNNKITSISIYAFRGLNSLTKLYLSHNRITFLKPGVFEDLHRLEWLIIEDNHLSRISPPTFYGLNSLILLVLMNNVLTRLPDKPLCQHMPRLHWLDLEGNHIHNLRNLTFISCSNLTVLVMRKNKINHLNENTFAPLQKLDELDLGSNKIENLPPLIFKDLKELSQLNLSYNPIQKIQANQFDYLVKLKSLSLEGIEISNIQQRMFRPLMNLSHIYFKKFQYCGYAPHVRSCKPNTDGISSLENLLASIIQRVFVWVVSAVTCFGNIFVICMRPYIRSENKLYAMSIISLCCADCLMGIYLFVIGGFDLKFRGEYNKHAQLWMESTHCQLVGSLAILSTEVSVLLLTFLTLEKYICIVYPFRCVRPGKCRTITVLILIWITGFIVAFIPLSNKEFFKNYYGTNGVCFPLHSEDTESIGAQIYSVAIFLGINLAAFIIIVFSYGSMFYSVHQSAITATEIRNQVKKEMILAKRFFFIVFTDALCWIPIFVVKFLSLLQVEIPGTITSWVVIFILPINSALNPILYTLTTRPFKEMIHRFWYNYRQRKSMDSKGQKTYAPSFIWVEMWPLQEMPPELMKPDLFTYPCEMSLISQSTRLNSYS
Nature of the assay: cell-based or functional assay.

The next assay addresses T2, GLP-2 receptor (GLP-2R) (Homo sapiens, UniProt O95838).
T2 sequence (O95838 1-553): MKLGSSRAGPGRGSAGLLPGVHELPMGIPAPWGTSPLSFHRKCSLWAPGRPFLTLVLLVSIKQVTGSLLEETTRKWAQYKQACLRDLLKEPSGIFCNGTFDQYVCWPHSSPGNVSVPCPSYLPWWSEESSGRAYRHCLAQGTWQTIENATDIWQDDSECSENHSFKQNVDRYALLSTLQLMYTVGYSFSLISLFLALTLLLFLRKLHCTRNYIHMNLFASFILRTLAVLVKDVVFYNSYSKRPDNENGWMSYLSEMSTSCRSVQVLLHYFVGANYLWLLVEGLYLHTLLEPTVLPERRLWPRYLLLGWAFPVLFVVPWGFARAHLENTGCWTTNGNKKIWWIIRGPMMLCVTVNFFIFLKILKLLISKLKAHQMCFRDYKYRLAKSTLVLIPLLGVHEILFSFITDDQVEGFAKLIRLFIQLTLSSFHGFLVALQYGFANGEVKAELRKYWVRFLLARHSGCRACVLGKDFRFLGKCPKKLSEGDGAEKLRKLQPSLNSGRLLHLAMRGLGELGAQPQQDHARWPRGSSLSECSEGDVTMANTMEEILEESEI
Description: GLP-2 receptor activation, CRE-luciferase reporter assay in HEK293 cells. Conditions: Example 18; HEK293 GLP-2R CRE-Luc, 24 hours. The format is cell-based. For orientation: Reporter assays use an easily measured gene product as a stand-in for the process of interest.

A further assay concerns the target GLP-2 receptor (UniProt O95838). Nature of the assay: cell-based or functional assay.
The next assay addresses relaxin receptor (LGR8) (Homo sapiens, UniProt Q8WXD0). Nature of the assay: cell-based or functional assay.
A further assay addresses GLP-1 receptor (UniProt P43220). Nature of the assay: cell-based or functional assay.
The target in the next assay is glucagon receptor (UniProt P47871). Nature of the assay: cell-based or functional assay.

pEC50: −log10 of the molar value.

Sequence of palivizumab(NH, CEXGGGGS)-relaxin2(single) and palivizumab light chain (heavy): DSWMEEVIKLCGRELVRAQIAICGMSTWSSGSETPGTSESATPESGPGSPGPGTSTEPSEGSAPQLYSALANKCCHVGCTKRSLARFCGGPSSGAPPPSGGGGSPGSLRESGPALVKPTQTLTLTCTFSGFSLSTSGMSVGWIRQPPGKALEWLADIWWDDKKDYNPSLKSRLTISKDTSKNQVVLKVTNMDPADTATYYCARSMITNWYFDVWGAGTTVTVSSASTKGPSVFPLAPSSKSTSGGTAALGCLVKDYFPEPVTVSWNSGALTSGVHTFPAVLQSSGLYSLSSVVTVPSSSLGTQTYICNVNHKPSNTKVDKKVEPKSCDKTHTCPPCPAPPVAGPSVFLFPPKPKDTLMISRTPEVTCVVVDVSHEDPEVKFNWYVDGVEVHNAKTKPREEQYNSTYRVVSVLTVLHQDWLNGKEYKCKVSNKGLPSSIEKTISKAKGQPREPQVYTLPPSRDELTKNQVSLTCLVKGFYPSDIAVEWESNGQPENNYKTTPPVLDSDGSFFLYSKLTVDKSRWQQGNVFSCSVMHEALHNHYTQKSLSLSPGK
Sequence of palivizumab(NH, CEXGGGGS)-relaxin2(single) and palivizumab light chain (light): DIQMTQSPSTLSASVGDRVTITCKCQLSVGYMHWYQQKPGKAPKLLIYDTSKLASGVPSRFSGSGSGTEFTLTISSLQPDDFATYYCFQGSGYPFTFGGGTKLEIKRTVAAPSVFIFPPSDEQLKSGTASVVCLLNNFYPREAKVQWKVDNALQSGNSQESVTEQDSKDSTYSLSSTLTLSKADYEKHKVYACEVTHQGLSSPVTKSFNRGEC
Sequence of relaxin receptor (LGR8) (Q8WXD0 whole entry): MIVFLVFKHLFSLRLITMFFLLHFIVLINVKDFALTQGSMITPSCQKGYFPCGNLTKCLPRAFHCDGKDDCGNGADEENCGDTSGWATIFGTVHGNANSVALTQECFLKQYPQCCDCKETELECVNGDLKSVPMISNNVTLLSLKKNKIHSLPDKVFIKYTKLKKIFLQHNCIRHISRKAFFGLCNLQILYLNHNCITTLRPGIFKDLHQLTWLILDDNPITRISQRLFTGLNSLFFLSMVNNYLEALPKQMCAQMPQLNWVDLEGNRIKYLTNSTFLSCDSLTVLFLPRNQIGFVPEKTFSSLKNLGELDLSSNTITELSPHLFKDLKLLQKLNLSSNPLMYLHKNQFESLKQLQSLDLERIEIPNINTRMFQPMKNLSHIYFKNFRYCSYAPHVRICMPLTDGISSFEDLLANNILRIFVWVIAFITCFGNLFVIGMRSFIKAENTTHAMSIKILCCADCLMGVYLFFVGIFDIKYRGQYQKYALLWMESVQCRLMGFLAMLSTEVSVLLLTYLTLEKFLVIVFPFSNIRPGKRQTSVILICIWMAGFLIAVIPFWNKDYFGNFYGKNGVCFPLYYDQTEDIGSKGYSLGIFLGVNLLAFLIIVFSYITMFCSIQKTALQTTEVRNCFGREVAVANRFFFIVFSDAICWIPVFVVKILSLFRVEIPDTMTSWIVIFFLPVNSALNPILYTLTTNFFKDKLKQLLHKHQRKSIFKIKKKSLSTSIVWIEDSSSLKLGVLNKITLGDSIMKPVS
Sequence of palivizumab(NH, EAAAK)-GLP2 and palivizumab(L) (heavy): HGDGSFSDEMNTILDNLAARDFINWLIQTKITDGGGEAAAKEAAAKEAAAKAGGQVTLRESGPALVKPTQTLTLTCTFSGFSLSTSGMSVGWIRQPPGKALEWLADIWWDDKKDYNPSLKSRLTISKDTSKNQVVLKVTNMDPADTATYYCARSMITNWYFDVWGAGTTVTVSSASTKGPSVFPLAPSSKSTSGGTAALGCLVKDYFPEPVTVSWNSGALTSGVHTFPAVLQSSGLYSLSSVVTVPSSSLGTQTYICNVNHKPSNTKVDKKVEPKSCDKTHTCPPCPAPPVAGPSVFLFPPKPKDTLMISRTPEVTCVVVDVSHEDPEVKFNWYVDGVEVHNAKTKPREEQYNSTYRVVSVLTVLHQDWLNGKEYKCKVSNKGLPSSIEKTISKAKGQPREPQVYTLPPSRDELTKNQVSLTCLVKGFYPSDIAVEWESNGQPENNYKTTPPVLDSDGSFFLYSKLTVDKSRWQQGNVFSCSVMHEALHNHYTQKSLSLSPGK
Sequence of palivizumab(NH, EAAAK)-GLP2 and palivizumab(L) (light): as the sequence (light) above
Sequence of palivizumab(NH, CEXGGGGG)-relaxin2(GGGPRR) and palivizumab light chain (heavy): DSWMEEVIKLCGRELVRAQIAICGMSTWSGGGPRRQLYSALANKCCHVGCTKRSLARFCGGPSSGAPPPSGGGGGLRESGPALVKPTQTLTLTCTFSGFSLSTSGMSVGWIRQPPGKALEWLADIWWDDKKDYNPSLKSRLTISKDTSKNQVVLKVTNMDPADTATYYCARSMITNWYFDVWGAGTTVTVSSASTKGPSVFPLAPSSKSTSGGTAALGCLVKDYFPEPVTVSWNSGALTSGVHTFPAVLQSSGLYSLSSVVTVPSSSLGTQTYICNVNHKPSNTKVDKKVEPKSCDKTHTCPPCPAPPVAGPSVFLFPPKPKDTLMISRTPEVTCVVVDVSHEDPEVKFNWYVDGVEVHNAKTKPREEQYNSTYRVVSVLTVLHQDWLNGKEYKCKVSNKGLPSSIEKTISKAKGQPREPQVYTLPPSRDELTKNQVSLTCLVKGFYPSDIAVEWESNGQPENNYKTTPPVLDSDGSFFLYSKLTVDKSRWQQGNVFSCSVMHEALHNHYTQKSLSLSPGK
Sequence of palivizumab(NH, CEXGGGGG)-relaxin2(GGGPRR) and palivizumab light chain (light): as the sequence (light) above
Sequence of palivizumab(NH, CEXGGGGS)-GLP2 and palivizumab(L) (heavy): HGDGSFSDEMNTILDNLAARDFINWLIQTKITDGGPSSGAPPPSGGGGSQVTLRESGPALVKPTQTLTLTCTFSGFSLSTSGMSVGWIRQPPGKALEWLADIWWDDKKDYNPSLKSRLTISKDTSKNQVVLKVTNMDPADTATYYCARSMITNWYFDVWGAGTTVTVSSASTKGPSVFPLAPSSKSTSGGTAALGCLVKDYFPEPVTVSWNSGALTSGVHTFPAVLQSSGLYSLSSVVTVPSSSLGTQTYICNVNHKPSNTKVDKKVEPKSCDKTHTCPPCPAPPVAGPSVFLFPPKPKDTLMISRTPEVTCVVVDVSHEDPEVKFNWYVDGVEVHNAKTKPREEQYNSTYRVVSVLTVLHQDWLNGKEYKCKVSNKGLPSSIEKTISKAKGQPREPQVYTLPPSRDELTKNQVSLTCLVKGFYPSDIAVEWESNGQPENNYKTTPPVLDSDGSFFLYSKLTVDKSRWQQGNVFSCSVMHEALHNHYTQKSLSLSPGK
Sequence of palivizumab(NH, CEXGGGGS)-GLP2 and palivizumab(L) (light): as the sequence (light) above
Sequence of palivizumab (NH, CEXGGGGG)-relaxin2(9GS) and palivizumab light chain (heavy): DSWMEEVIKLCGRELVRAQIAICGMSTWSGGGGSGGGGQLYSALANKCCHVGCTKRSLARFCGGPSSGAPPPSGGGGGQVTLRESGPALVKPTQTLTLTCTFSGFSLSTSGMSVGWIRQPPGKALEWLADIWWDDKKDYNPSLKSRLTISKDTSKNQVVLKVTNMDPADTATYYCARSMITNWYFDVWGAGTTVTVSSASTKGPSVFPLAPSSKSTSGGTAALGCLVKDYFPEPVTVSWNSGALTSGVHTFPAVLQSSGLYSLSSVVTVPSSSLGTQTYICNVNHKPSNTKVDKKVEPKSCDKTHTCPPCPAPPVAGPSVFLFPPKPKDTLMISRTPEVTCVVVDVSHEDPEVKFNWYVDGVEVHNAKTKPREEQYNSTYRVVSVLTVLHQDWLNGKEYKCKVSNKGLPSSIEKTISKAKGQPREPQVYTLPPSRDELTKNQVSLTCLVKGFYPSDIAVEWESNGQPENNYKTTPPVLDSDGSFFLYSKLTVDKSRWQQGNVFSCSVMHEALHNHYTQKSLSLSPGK
Sequence of palivizumab (NH, CEXGGGGG)-relaxin2(9GS) and palivizumab light chain (light): as the sequence (light) above
Description for GLP-2 receptor (GLP-2R): Luminescence intensities were then measured using One-Glo (Promega) luciferase reagent by following manufacturer's instruction. The EC50 values were determined by fitting data into a logistic sigmoidal function: y=A2+(A1-A2)/(1+(x/x0)p), where A1 is the initial value, A2 is the final value, x0 is the inflection point of the curve, and p is the power. Data was analyzed using GraphPad Prism 6 software.

“leptin (from UniProt P41159 22-167) (ligand)”: the EC50, luciferase reporter (FIG. 6) in the assay with leptin receptor amounted to 55 pM.

In the case of “palivizumab (NH, CEXGGGGG)-relaxin2(9GS) and palivizumab light chain”, in the assay with relaxin receptor (LGR7), the EC50, CRE-luciferase reporter in HEK293 cells came to 480 pM. Still for that read-out and setting: in the case of “palivizumab (NH, GGGGS3)-relaxin2(9GS) and palivizumab light chain” it was 240 pM. In the assay with relaxin receptor (LGR7), “palivizumab (NH, GGGGS3)-relaxin(18GS) and palivizumab light chain” showed an EC50, CRE-luciferase reporter in HEK293 cells of 1300 pM. Still for that read-out and setting: in the case of “palivizumab fab(NH, CEXGGGGS)-relaxin2(single) and palivizumab light chain” it was 47300 pM.

Substance “palivizumab fab(NH, GGGGS3)-relaxin2(9GS) and palivizumab light chain” displayed an EC50, CRE-luciferase reporter in HEK293 cells with relaxin receptor (LGR7) of 5800 pM.

Consider “palivizumab(NH, CEXGGGGG)-relaxin2(30GS) and palivizumab light chain”, for which the EC50, CRE-luciferase reporter in HEK293 cells in the assay with relaxin receptor (LGR7) was 208 pM. “palivizumab(NH, CEXGGGGG)-relaxin2(GGGPRR) and palivizumab light chain” returned an EC50, CRE-luciferase reporter in HEK293 cells with relaxin receptor (LGR7) of 2000 pM. Regarding “palivizumab(NH, CEXGGGGS)-GLP2 (SEQ ID NO: 218) and palivizumab(L) (SEQ ID NO: 7)”, the pEC50 – broadly, −log10 of the EC50, conventionally taken in molar units – with GLP-2 receptor (GLP-2R) was 9.88. For “palivizumab(NH, CEXGGGGS)-GLP2 and palivizumab(L)”, the EC50, CRE-luciferase reporter in HEK293 cells with GLP-2 receptor came out at 133 pM.

In the assay with relaxin receptor (LGR7), “palivizumab(NH, CEXGGGGS)-relaxin2(single) and palivizumab light chain” returned an EC50, CRE-luciferase reporter in HEK293 cells of 2500 pM and an EC50, CRE-luciferase reporter in HEK293 cells (FIG. 13) of 2.5 nM. In addition, the EC50, CRE-luciferase reporter in HEK293 cells (FIG. 13) with relaxin receptor (LGR8) was determined as 553 nM.

“palivizumab(NH, EAAAK)-GLP2 and palivizumab(L)” registered an EC50, CRE-luciferase reporter in HEK293 cells with GLP-2 receptor of 69 pM. In the case of “palivizumab(NH, EAAAK)-relaxin2(GGGPRR) and palivizumab light chain”, the EC50, CRE-luciferase reporter in HEK293 cells with relaxin receptor (LGR7) is 3400 pM. As to “palivizumab(NL, EAAAK)-glucagon(2G) and pPalivizumab(NH, GGGGS1)-exendin-4”, the EC50, CRE-luciferase reporter in HEK293 cells came out at 9 pM with GLP-1 receptor and 26 pM with glucagon receptor. In the assay with relaxin receptor (LGR7), “relaxin-2 (from UniProt P04090 25-185) (ligand)” came in with an EC50, CRE-luciferase reporter in HEK293 cells of 12.1 pM; an EC50, CRE-luciferase reporter in HEK293 cells (FIG. 13) of 0.012 nM; an EC50, CRE-luciferase reporter in HEK293 cells (FIG. 23) of 0.014 nM. In the assay with relaxin receptor (LGR8), the EC50, CRE-luciferase reporter in HEK293 cells (FIG. 13) amounted to 11.2 nM and the EC50, CRE-luciferase reporter in HEK293 cells (FIG. 23) is 11.2 nM.

In the case of trastuzumab(CDR3H) Leptin, the EC50, luciferase reporter (FIG. 6) with leptin receptor worked out at 44.8 pM.
